Patent publication US20260248972A1, “DUAL RECEPTOR TARGETING RADIOLIGANDS AND USES THEREOF RELATED APPLICATIONS” (priority 2022, published 2026)

Assays:
SSTR2 = target: T1, SSTR2 (Rattus norvegicus, UniProt P30680); experiment: Competitive cell-binding assay on AR42J cells with 125I-C1 as competitive ligand; settings: based on mean IC50, C-1 = 1.00
T1 construct: host or cells: AR42J cells
Method: AR42J cells (ATCC) were maintained in RPMI-1640 medium (Gibco) supplemented with 15% fetal bovine serum (Gibco) and 1% penicillin-streptomycin (BI) at 37° C. in a humidified incubator with 5% CO2. The culture medium was replaced with fresh medium every 2-3 days. Experiments were performed with cells at 70-80% confluence.
Binding Affinity Tested by Using ^125I-Labeled Competitive Ligands.
The binding affinities of test compounds were determined by a competitive cell-binding assay using ^125I-C1 and ^125I-C3 as the competitive ligand. The suspended AR42J cells at a density of 1~3×10^6 cells/mL in binding buffer (RPMI-1640 medium supplemented with 0.25% bovine serum albumin) were transferred to a MultiScreen-DV Filter Plate (Millipore) with 100 μL per well except the blank group where the binding buffer was used instead. The cells were then incubated with ^125I-C1 and ^125I-C3 (0.02 μCi/well) in the presence of increasing concentrations (0-10000 nM) of test compounds at 37° C. for 1 h (n=3). The final volume in each well was maintained at 200 μL and insufficient volume was adjusted by the binding buffer. After the 1 h incubation, unbound ^125I-competitive ligands were removed by filtration using a Multiscreen vacuum manifold (Millipore) followed by rinses with the binding buffer (3 times). The filters were collected, and their radioactivity were individually measured by γ counter (2480 WIZARD2, PerkinElmer). The best-fit IC50value (inhibitory concentration when 50% of the bound ^125I-C1 and ^125l I-C3 on cells were displaced) of test compounds were calculated by fitting the data with nonlinear regression using GraphPad Prism 8.0.1.

in vivo = settings: BALB/c nude, mouse, in vivo, iv, total radioactivity
Outline: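 Compounds labelled with ^177Lu in 0.5 M NaOAc pH 4.5 at 95° C for 15 min, then used directly or diluted in PBS with 3 mg/mL ascorbate. BALB/c nude mice bore subcutaneous AR42J flank xenografts (0.05-0.50 g). Organs excised at 4, 24 and 72 h post-injection and γ-counted for % ID and % ID/g.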

T1 sequence (P30680 whole entry): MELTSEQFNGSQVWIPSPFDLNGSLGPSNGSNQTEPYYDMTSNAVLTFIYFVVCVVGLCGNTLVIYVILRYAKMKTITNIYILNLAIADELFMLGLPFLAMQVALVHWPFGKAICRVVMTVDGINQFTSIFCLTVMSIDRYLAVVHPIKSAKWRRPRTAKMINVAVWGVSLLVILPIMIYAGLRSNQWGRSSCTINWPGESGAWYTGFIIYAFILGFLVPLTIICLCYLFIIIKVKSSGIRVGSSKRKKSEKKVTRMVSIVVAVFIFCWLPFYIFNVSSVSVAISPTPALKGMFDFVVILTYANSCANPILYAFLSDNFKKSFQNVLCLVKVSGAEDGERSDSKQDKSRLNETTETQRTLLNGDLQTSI

SMILES: C[C@@H](O)[C@H](NC(=O)[C@@H]1CSSC[C@H](NC(=O)[C@@H](Cc2ccccc2)NC(=O)COCCOCCNC(=O)[C@H](CCCCNC(=O)[C@H](CCC(=O)O)NC(=O)c2cccc(NC(=O)N[C@@H]3CN(C4CCCCC4)c4ccccc4N(CC(=O)C(C)(C)C)C3=O)c2)NC(=O)CN2CCN(CC(=O)O)CCN(CC(=O)O)CCN(CC(=O)O)CC2)C(=O)N[C@@H](Cc2ccc(O)cc2)C(=O)N[C@H](Cc2c[nH]c3ccccc23)C(=O)N[C@@H](CCCCN)C(=O)N[C@@H]([C@@H](C)O)C(=O)N1)C(=O)O [Compound I-27, DOTA-K(-E-Z360)-OEG-f[CYwKTC]T-OH]
- Relative Binding Affinity SSTR2 (SSTR2): 0.51
- tissue to tissue ratio at 24 h (in vivo; T/K Tumor/Kidney ratio): 1.4
- tissue to tissue ratio at 24 h (in vivo; T/L Tumor/Liver ratio): 26
- tissue to tissue ratio at 24 h (in vivo; T/P Tumor/Pancreas ratio): 16
- tissue to tissue ratio at 24 h (in vivo; T/Sp Tumor/Spleen ratio): 64
- tissue to tissue ratio at 24 h (in vivo; T/St Tumor/Stomach ratio): 6.3
- tissue uptake at 24 h (in vivo; uptake Kidney): 21 %ID/g
- tissue uptake at 24 h (in vivo; uptake Liver): 1.11 %ID/g
- tissue uptake at 24 h (in vivo; uptake Pancreas): 1.79 %ID/g
- tissue uptake at 24 h (in vivo; uptake Spleen): 0.44 %ID/g
- tissue uptake at 24 h (in vivo; uptake Stomach): 4.51 %ID/g
- tissue uptake at 24 h (in vivo; uptake Tumor): 28.5 %ID/g

SMILES: C[C@@H](O)[C@H](NC(=O)[C@@H]1CSSC[C@H](NC(=O)[C@@H](Cc2ccccc2)NC(=O)[C@H](CCCCNC(=O)c2cccc(NC(=O)N[C@@H]3CN(C4CCCCC4)c4ccccc4N(CC(=O)C(C)(C)C)C3=O)c2)NC(=O)COCCOCCNC(=O)CN2CCN(CC(=O)O)CCN(CC(=O)O)CCN(CC(=O)O)CC2)C(=O)N[C@@H](Cc2ccc(O)cc2)C(=O)N[C@H](Cc2c[nH]c3ccccc23)C(=O)N[C@@H](CCCCN)C(=O)N[C@@H]([C@@H](C)O)C(=O)N1)C(=O)O [^177Lu-I-35, metal not drawn]
- tissue uptake at 4 h (in vivo; % ID/g Adrenal gland): 2.8 %ID/g
- tissue uptake at 24 h (in vivo; % ID/g Adrenal gland): 2.3 %ID/g
- tissue uptake at 72 h (in vivo; % ID/g Adrenal gland): 0.34 %ID/g
- tissue uptake at 4 h (in vivo; % ID/g Blood): 1.98 %ID/g
- tissue uptake at 24 h (in vivo; % ID/g Blood): 0.11 %ID/g
- tissue uptake at 72 h (in vivo; % ID/g Blood): 0.03 %ID/g
- tissue uptake at 4 h (in vivo; % ID/g Fat): 3.49 %ID/g
- tissue uptake at 24 h (in vivo; % ID/g Fat): 0.75 %ID/g
- tissue uptake at 72 h (in vivo; % ID/g Fat): 0.41 %ID/g
- tissue uptake at 4 h (in vivo; % ID/g Femur): 1.01 %ID/g
- tissue uptake at 24 h (in vivo; % ID/g Femur): 0.52 %ID/g
- tissue uptake at 72 h (in vivo; % ID/g Femur): 0.21 %ID/g
- tissue uptake at 4 h (in vivo; % ID/g Heart): 1.26 %ID/g
- tissue uptake at 24 h (in vivo; % ID/g Heart): 0.56 %ID/g
- tissue uptake at 72 h (in vivo; % ID/g Heart): 0.25 %ID/g
- tissue uptake at 4 h (in vivo; % ID/g Intestine): 2.36 %ID/g
- tissue uptake at 24 h (in vivo; % ID/g Intestine): 0.84 %ID/g
- tissue uptake at 72 h (in vivo; % ID/g Intestine): 0.72 %ID/g
- tissue uptake at 4 h (in vivo; % ID/g Kidney): 18.5 %ID/g
- tissue uptake at 24 h (in vivo; % ID/g Kidney): 6.06 %ID/g
- tissue uptake at 72 h (in vivo; % ID/g Kidney): 4.51 %ID/g
- tissue uptake at 4 h (in vivo; % ID/g Liver): 18.1 %ID/g
- tissue uptake at 24 h (in vivo; % ID/g Liver): 5.06 %ID/g
- tissue uptake at 72 h (in vivo; % ID/g Liver): 2.41 %ID/g
- tissue uptake at 4 h (in vivo; % ID/g Lung): 3.44 %ID/g
- tissue uptake at 24 h (in vivo; % ID/g Lung): 1.73 %ID/g
- tissue uptake at 72 h (in vivo; % ID/g Lung): 0.66 %ID/g
- tissue uptake at 4 h (in vivo; % ID/g Muscle): 0.42 %ID/g
- tissue uptake at 24 h (in vivo; % ID/g Muscle): 0.12 %ID/g
- tissue uptake at 72 h (in vivo; % ID/g Muscle): 0.03 %ID/g
- tissue uptake at 4 h (in vivo; % ID/g Pancreas): 5.03 %ID/g
- tissue uptake at 24 h (in vivo; % ID/g Pancreas): 0.96 %ID/g
- tissue uptake at 72 h (in vivo; % ID/g Pancreas): 0.34 %ID/g
- tissue uptake at 4 h (in vivo; % ID/g Spleen): 0.82 %ID/g
- tissue uptake at 24 h (in vivo; % ID/g Spleen): 0.47 %ID/g
- tissue uptake at 72 h (in vivo; % ID/g Spleen): 0.28 %ID/g
- tissue uptake at 4 h (in vivo; % ID/g Stomach): 6.98 %ID/g
- tissue uptake at 24 h (in vivo; % ID/g Stomach): 3.09 %ID/g
- tissue uptake at 72 h (in vivo; % ID/g Stomach): 2.29 %ID/g
- tissue uptake at 4 h (in vivo; % ID/g Tumor): 27.2 %ID/g
- tissue uptake at 24 h (in vivo; % ID/g Tumor): 17.8 %ID/g
- tissue uptake at 72 h (in vivo; % ID/g Tumor): 18 %ID/g

SMILES: C[C@@H](O)[C@H](NC(=O)[C@@H]1CSSC[C@H](NC(=O)[C@@H](Cc2ccccc2)NC(=O)[C@H](CCCCNC(=O)COCCOCCNC(=O)c2cccc(NC(=O)N[C@@H]3CN(C4CCCCC4)c4ccccc4N(CC(=O)C(C)(C)C)C3=O)c2)NC(=O)CN2CCN(CC(=O)O)CCN(CC(=O)O)CCN(CC(=O)O)CC2)C(=O)N[C@@H](Cc2ccc(O)cc2)C(=O)N[C@H](Cc2c[nH]c3ccccc23)C(=O)N[C@@H](CCCCN)C(=O)N[C@@H]([C@@H](C)O)C(=O)N1)C(=O)O [^177Lu-I-36, metal not drawn]
- tissue uptake at 4 h (in vivo; % ID/g Adrenal gland): 2.48 %ID/g
- tissue uptake at 24 h (in vivo; % ID/g Adrenal gland): 1.67 %ID/g
- tissue uptake at 72 h (in vivo; % ID/g Adrenal gland): 0.87 %ID/g
- tissue uptake at 4 h (in vivo; % ID/g Blood): 2.09 %ID/g
- tissue uptake at 24 h (in vivo; % ID/g Blood): 0.7 %ID/g
- tissue uptake at 72 h (in vivo; % ID/g Blood): 0.21 %ID/g
- tissue uptake at 4 h (in vivo; % ID/g Fat): 3.32 %ID/g
- tissue uptake at 24 h (in vivo; % ID/g Fat): 2.39 %ID/g
- tissue uptake at 72 h (in vivo; % ID/g Fat): 1.12 %ID/g
- tissue uptake at 4 h (in vivo; % ID/g Femur): 0.79 %ID/g
- tissue uptake at 24 h (in vivo; % ID/g Femur): 0.76 %ID/g
- tissue uptake at 72 h (in vivo; % ID/g Femur): 0.59 %ID/g
- tissue uptake at 4 h (in vivo; % ID/g Heart): 1.36 %ID/g
- tissue uptake at 24 h (in vivo; % ID/g Heart): 0.85 %ID/g
- tissue uptake at 72 h (in vivo; % ID/g Heart): 0.47 %ID/g
- tissue uptake at 4 h (in vivo; % ID/g Intestine): 2.27 %ID/g
- tissue uptake at 24 h (in vivo; % ID/g Intestine): 1.29 %ID/g
- tissue uptake at 72 h (in vivo; % ID/g Intestine): 1.39 %ID/g
- tissue uptake at 4 h (in vivo; % ID/g Kidney): 20.7 %ID/g
- tissue uptake at 24 h (in vivo; % ID/g Kidney): 18.4 %ID/g
- tissue uptake at 72 h (in vivo; % ID/g Kidney): 14.2 %ID/g
- tissue uptake at 4 h (in vivo; % ID/g Liver): 12 %ID/g
- tissue uptake at 24 h (in vivo; % ID/g Liver): 7.22 %ID/g
- tissue uptake at 72 h (in vivo; % ID/g Liver): 3.99 %ID/g
- tissue uptake at 4 h (in vivo; % ID/g Lung): 2.89 %ID/g
- tissue uptake at 24 h (in vivo; % ID/g Lung): 1.72 %ID/g
- tissue uptake at 72 h (in vivo; % ID/g Lung): 1.36 %ID/g
- tissue uptake at 4 h (in vivo; % ID/g Muscle): 0.41 %ID/g
- tissue uptake at 24 h (in vivo; % ID/g Muscle): 0.25 %ID/g
- tissue uptake at 72 h (in vivo; % ID/g Muscle): 0.13 %ID/g
- tissue uptake at 4 h (in vivo; % ID/g Pancreas): 5.66 %ID/g
- tissue uptake at 24 h (in vivo; % ID/g Pancreas): 3.34 %ID/g
- tissue uptake at 72 h (in vivo; % ID/g Pancreas): 1.28 %ID/g
- tissue uptake at 4 h (in vivo; % ID/g Spleen): 0.97 %ID/g
- tissue uptake at 24 h (in vivo; % ID/g Spleen): 0.85 %ID/g
- tissue uptake at 72 h (in vivo; % ID/g Spleen): 0.36 %ID/g
- tissue uptake at 4 h (in vivo; % ID/g Stomach): 6.6 %ID/g
- tissue uptake at 24 h (in vivo; % ID/g Stomach): 5.96 %ID/g
- tissue uptake at 72 h (in vivo; % ID/g Stomach): 3.8 %ID/g
- tissue uptake at 4 h (in vivo; % ID/g Tumor): 45.1 %ID/g
- tissue uptake at 24 h (in vivo; % ID/g Tumor): 35.2 %ID/g
- tissue uptake at 72 h (in vivo; % ID/g Tumor): 36.4 %ID/g
